Tested on: Site C binding proteins, HeLa nuclear fraction (HA pool; LBP-1b and LBP-1c/LSF identified by MS) (Homo sapiens)
Test: pulldown

Which binding signal (fmol shifted per ug protein) (oligo affinity column fraction, 25,332 units and 36.7 ug protein, activity assayed by Site C EMSA) does the source give for “TCGCGGCGCGAGTTTCAGGCAGCGCTGCGT (double strand) [Site C oligo (hTERT promoter)]” here?
The binding signal (fmol shifted per ug protein) was 690.

With “TCGCGGCGAGAGTTTCAGGCAGCGCTGCGT (double strand) [OBC oligo]” as the sequence, how does the binding signal (fmol shifted per ug protein) (equivalent OBC column fraction, 6,300 units and 103 ug, four fold less Site C EMSA activity recovered than from Site C column) read?
Its binding signal (fmol shifted per ug protein) is 61.2.

Reference: US20080213812
